# Reference: the supplement of paper PMC10065799, “High-throughput profiling of sequence recognition by tyrosine kinases and SH2 domains using bacterial peptide display” (eLife, 2023)
# Key:
# Jak2 = Jak2 (UniProt O60674); test: phosphorylation enrichment, bacterial display (enrichment ratio); higher = better substrate or ligand; peptides without Tyr show the background
# Fyn = Fyn (UniProt P06241); test: as above
# Fes = Fes (UniProt P07332); test: as above
# FGFR1 = FGFR1 (UniProt P11362); test: as above
# FGFR1, sequence (P11362 whole entry, looked up): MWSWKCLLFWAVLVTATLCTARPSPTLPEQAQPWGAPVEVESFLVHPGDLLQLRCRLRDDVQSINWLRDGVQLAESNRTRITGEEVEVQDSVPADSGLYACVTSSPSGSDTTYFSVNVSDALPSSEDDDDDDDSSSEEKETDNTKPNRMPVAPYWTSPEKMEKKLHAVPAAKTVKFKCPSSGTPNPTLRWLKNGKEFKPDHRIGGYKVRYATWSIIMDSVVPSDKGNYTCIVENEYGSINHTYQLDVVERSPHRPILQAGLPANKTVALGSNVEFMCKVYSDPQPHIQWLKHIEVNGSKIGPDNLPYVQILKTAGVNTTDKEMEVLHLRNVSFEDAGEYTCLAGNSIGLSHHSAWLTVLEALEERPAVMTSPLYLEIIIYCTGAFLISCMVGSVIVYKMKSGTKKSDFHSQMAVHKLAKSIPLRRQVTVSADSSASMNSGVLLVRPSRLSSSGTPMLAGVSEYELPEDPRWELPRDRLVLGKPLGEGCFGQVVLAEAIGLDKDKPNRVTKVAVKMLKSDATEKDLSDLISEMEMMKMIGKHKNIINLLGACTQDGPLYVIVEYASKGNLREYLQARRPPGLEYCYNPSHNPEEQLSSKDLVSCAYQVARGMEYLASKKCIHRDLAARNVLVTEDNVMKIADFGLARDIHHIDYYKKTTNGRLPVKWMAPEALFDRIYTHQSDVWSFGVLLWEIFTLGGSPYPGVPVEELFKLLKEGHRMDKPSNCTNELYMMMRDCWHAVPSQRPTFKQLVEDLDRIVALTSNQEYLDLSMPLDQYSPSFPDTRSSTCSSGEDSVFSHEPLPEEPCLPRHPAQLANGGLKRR
# EPHB2 = EPHB2 (UniProt P29323); test: as above
# EPHB2, sequence (P29323 whole entry, looked up): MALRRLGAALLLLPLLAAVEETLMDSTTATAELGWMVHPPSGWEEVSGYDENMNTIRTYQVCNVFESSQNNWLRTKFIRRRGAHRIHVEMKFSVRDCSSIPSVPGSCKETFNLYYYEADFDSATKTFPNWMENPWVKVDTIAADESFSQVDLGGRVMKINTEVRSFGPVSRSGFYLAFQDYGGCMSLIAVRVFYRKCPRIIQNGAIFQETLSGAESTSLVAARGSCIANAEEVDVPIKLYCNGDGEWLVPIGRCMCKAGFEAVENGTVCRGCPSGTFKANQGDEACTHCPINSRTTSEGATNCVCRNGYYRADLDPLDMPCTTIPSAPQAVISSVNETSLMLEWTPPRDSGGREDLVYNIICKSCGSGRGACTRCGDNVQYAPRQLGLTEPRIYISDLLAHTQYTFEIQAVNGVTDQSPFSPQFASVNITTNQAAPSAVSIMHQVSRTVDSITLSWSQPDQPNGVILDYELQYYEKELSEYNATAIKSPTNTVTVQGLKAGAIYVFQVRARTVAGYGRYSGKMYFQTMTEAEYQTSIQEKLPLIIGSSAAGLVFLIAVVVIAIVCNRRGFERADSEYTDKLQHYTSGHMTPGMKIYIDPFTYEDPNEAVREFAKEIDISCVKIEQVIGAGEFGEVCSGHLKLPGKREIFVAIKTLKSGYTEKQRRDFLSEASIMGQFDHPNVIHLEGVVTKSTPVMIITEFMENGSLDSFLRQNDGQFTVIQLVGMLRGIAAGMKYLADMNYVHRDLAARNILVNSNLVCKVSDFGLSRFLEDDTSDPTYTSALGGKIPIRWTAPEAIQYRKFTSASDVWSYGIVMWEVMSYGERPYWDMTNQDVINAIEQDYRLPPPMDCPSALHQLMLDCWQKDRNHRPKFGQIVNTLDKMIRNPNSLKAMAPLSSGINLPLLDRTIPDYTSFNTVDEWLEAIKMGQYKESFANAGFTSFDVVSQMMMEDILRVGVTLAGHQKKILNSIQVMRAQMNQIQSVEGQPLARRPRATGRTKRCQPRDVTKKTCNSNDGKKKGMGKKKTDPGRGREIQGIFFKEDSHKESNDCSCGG
# EPHB1 = EPHB1 (UniProt P54762); test: as above
# FGFR3 = FGFR3 (UniProt P22607); test: as above
# FGFR3, sequence (P22607 whole entry, looked up): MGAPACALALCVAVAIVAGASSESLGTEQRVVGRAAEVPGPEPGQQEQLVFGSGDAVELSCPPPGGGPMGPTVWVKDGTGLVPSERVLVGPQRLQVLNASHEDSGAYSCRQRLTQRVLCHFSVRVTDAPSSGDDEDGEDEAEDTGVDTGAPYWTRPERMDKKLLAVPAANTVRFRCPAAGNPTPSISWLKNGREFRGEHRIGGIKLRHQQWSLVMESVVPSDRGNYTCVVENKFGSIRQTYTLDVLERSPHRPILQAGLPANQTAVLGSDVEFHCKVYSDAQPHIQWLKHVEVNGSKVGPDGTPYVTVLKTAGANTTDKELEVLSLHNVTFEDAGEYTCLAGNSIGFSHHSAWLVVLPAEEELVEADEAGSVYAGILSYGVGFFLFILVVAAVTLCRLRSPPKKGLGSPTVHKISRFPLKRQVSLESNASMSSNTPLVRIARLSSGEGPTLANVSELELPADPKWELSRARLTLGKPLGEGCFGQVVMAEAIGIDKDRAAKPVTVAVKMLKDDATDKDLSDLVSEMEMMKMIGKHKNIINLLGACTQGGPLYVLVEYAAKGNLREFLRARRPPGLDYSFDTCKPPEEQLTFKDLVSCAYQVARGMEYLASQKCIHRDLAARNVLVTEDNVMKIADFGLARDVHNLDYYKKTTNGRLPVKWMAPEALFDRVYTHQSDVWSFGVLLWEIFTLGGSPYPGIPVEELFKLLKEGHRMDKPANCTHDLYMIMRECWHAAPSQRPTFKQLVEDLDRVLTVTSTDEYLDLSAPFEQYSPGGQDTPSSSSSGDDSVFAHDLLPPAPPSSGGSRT
# Fer (mouse) = test: as above
# c-Abl (mouse) = test: as above
# Hck = Hck (UniProt P08631); test: as above
# Hck, sequence (P08631 whole entry, looked up): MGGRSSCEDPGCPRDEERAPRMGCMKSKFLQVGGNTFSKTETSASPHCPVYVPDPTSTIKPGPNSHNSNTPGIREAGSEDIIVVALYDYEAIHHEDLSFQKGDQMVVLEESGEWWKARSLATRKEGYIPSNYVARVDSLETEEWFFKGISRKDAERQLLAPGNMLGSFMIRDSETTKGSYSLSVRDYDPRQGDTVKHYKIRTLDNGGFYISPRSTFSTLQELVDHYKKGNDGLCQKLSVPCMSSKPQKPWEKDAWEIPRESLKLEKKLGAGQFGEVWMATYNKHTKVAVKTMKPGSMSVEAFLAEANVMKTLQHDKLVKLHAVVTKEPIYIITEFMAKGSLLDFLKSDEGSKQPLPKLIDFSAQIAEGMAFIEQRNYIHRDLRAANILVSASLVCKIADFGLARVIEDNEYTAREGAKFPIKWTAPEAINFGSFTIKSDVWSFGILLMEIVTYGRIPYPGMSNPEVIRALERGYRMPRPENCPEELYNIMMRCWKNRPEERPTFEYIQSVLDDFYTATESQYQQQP
# c-Src = test: as above
# MERTK = MERTK (UniProt Q12866); test: as above
# MERTK, sequence (Q12866 whole entry, looked up): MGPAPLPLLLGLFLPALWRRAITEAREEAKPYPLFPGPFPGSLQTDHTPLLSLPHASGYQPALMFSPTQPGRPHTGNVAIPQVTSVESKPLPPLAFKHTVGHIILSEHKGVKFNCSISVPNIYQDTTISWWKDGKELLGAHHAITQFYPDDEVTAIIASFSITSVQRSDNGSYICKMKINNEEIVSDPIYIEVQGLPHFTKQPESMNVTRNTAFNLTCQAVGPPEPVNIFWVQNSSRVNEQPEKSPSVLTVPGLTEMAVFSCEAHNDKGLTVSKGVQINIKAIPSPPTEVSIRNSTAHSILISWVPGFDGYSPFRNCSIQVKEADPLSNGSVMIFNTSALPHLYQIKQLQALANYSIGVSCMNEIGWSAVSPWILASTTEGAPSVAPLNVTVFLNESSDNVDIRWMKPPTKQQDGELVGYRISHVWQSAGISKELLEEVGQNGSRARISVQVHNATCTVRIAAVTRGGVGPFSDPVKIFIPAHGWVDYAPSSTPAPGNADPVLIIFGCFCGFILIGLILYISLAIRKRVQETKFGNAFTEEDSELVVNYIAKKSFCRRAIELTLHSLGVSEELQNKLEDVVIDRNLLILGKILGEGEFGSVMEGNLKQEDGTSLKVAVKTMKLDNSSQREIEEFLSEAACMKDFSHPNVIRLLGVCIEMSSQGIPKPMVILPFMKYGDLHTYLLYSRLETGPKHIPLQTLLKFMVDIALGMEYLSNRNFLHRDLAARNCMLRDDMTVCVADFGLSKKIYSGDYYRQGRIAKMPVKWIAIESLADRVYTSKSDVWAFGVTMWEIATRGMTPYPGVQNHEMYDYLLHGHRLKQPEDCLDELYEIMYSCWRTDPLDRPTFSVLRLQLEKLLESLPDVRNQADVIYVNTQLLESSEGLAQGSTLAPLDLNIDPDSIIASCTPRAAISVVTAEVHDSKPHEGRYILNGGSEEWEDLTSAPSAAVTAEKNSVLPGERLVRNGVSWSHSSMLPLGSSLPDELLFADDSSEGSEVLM
# AncSZ = test: as above
# c-Src SH2 = test: SH2 binding enrichment of the phosphorylated peptide, bacterial display (enrichment ratio); higher = better substrate or ligand; peptides without Tyr show the background
# SHP2-C SH2 = test: as above
# Grb2 SH2 = Grb2 SH2 (UniProt P62993); test: as above
# 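Wherever SH2 binding enrichment of the phosphorylated peptide, bacterial display is given: peptide library displayed on the E. coli surface as eCPX fusions, selected cells deep-sequenced, score is each peptide's frequency after selection divided by its frequency in the input.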
# 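Wherever phosphorylation enrichment, bacterial display is given: 11-residue human phosphosite peptides and single-mutation variants displayed on the E. coli surface, counted by deep sequencing, each peptide's frequency after selection divided by its frequency in the unselected input library; frequency after pTyr selection over input frequency; kinase dosed for 20-30% of maximal phosphorylation in three min.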
# Fyn, sequence (P06241 whole entry, looked up): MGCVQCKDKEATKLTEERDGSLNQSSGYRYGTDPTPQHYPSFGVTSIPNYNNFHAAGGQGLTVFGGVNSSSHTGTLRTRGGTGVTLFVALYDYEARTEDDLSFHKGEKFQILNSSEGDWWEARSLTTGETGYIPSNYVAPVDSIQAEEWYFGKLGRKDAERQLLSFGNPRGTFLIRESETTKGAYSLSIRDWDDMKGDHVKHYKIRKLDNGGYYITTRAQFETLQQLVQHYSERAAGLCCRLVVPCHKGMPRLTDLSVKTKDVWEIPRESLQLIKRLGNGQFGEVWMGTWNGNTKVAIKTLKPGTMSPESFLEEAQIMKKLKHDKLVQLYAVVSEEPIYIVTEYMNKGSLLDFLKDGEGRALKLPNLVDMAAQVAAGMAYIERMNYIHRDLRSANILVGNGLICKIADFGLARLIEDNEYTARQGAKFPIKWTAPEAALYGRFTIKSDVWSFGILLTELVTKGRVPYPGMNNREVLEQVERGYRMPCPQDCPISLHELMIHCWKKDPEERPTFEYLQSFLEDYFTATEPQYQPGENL
Sequence,SH2 binding enrichment (c-Src SH2),SH2 binding enrichment (SHP2-C SH2),SH2 binding enrichment (Grb2 SH2),phosphorylation enrichment (Jak2),phosphorylation enrichment (Fyn),phosphorylation enrichment (Fes),phosphorylation enrichment (FGFR1),phosphorylation enrichment (EPHB2),phosphorylation enrichment (EPHB1),phosphorylation enrichment (FGFR3),phosphorylation enrichment (Fer (mouse)),phosphorylation enrichment (c-Abl (mouse)),phosphorylation enrichment (Hck),phosphorylation enrichment (c-Src),phosphorylation enrichment (MERTK),phosphorylation enrichment (AncSZ)
LQTFHYHGHSM [PDHA1_Y289_R288H_YF],1.27,1.47,1.47,0.641,0.501,0.715,0.419,0.448,0.322,0.536,0.435,0.493,0.533,1.2,0.501,0.599
LREIRYQGGNR [VWF_Y1570_V1565L],0.454,0.504,0.835,0.643,0.756,0.636,0.671,0.518,0.385,0.551,0.537,0.653,0.469,0.488,0.52,0.796
LRVGFYESDVM [A2M_Y708],4.14,1.02,0.934,2.04,1.28,3.12,1.39,0.934,1.86,2.89,1.62,1.9,0.996,1.33,2.61,2.97

# Now from value to sequence, other results behind:
SH2 binding enrichment (c-Src SH2),SH2 binding enrichment (SHP2-C SH2),SH2 binding enrichment (Grb2 SH2),Sequence,phosphorylation enrichment (Jak2),phosphorylation enrichment (Fyn),phosphorylation enrichment (Fes),phosphorylation enrichment (FGFR1),phosphorylation enrichment (EPHB2),phosphorylation enrichment (EPHB1),phosphorylation enrichment (FGFR3),phosphorylation enrichment (Fer (mouse)),phosphorylation enrichment (c-Abl (mouse)),phosphorylation enrichment (Hck),phosphorylation enrichment (c-Src),phosphorylation enrichment (MERTK),phosphorylation enrichment (AncSZ)
0.547,0.65,0.956,LNTFHHAGVSA [POLR2A_Y1109_Y1109H],1.19,0.356,2.04,0.462,0.76,0.632,0.731,0.766,1.36,0.575,1.17,0.883,0.884
0.399,0.815,1.25,LQTYRYHGLSM [PDHA1_Y289_H292L],0.576,0.703,1.13,0.749,0.746,0.673,0.915,0.572,0.564,0.648,0.471,0.443,0.927
0.373,0.359,0.893,LRGVIYVILRK [PMP22_Y153_S149R],1.15,0.65,1.09,0.665,0.551,0.58,0.833,0.577,0.778,0.509,0.713,0.393,2.21
0.595,22.6,0.761,LRNIDYFRLDG [ATRX_Y2083_YF],26.8,2.77,4.09,21.5,3.05,2.95,10.8,1.7,5.39,1.63,3.74,3.41,3.71
1.43,0.803,0.974,LRYDSYWSYCN [SLC20A2_Y433_S434W],2.4,5.26,1.53,3.88,9.36,7.63,3.72,1.51,1.68,4.95,4.87,5.37,2.25
